According to US20170209564A1:

How the values were obtained:
Details in all cases: remark: other sources report otherwise
[1] = biological target: T1, H1-mini2-cluster1+5+6-GCN4 without leader sequence and with FLAG-thrombin-foldon-HIS; test: ELISA, coated CR6261, P. pastoris medium; average of the parental
[2] = biological target: s127H1; test: apparent Kd (Kd^app), purified polypeptide; method not stated
[3] = biological target: s55G7; test: as above
[4] = biological target: s86B4; test: as above
[5] = biological target: s6E12; test: as above
[6] = biological target: s74H9; test: as above
[7] = biological target: T1, H1-mini2-cluster1+5+6-GCN4 without …; test: ELISA signal over HTRF expression signal, P. pastoris; the reference itself
[8] = biological target: T1, H1-mini2-cluster1+5+6-GCN4 without …; test: ELISA, coated CR6261, HEK293F medium; average of the parental
[9] = biological target: 6A1; test: ELISA, coated CR6261, P. pastoris medium
[10] = biological target: 7B6; test: ELISA, coated CR6261, P. pastoris medium
[11] = biological target: 91C8; test: ELISA, coated CR6261, P. pastoris medium
[12] = biological target: 97G10; test: ELISA, coated CR6261, P. pastoris medium
[13] = biological target: 79F8; test: ELISA, coated CR6261, P. pastoris medium
[14] = biological target: 58A5; test: ELISA, coated CR6261, P. pastoris medium
[15] = biological target: 81F11; test: ELISA, coated CR6261, P. pastoris medium
[16] = biological target: 36E4; test: ELISA, coated CR6261, P. pastoris medium
[17] = biological target: 86G2; test: ELISA, coated CR6261, P. pastoris medium
[18] = biological target: 76D10; test: ELISA, coated CR6261, P. pastoris medium
[19] = biological target: 90A9; test: ELISA, coated CR6261, P. pastoris medium
[20] = biological target: 91C4; test: ELISA, coated CR6261, P. pastoris medium
[21] = biological target: 78G2; test: ELISA, coated CR6261, P. pastoris medium
[22] = biological target: 70F6; test: ELISA, coated CR6261, P. pastoris medium
[23] = biological target: 67C11; test: ELISA, coated CR6261, P. pastoris medium
[24] = biological target: 48D11; test: ELISA, coated CR6261, P. pastoris medium
[25] = biological target: 79C2; test: ELISA, coated CR6261, P. pastoris medium
[26] = biological target: 57B8; test: ELISA, coated CR6261, P. pastoris medium
[27] = biological target: 84E10; test: ELISA, coated CR6261, P. pastoris medium
[28] = biological target: 71C4; test: ELISA, coated CR6261, P. pastoris medium
[29] = biological target: 86G3; test: ELISA, coated CR6261, P. pastoris medium
[30] = biological target: 220C9; test: ELISA, coated CR6261, HEK293F medium
[31] = biological target: 127H1; test: ELISA, coated CR6261, HEK293F medium
[32] = biological target: 6E12; test: ELISA, coated CR6261, HEK293F medium
[33] = biological target: 171E5; test: ELISA, coated CR6261, HEK293F medium
[34] = biological target: 74H9; test: ELISA, coated CR6261, HEK293F medium
[35] = biological target: 86B4; test: ELISA, coated CR6261, HEK293F medium
[36] = biological target: 7A7; test: ELISA, coated CR6261, HEK293F medium
[37] = biological target: 91C4; test: ELISA, coated CR6261, HEK293F medium
[38] = biological target: 115A1; test: ELISA, coated CR6261, HEK293F medium
[39] = biological target: 131B5; test: ELISA, coated CR6261, HEK293F medium
[40] = biological target: 71H2; test: ELISA, coated CR6261, HEK293F medium
[41] = biological target: 181H9; test: ELISA, coated CR6261, HEK293F medium
[42] = biological target: 113E7; test: ELISA, coated CR6261, HEK293F medium
[43] = biological target: 71C4; test: ELISA, coated CR6261, HEK293F medium
[44] = biological target: T1, H1-mini2-cluster1+5+6-GCN4 without …; test: ELISA signal over HTRF expression signal, HEK293F; average of the parental

B1: CR6261 (antibody, V domains shown)
VH: EVQLVESGAEVKKPGSSVKVSCKASGGPFRSYAISWVRQAPGQGPEWMGGIIPIFGTTKYAPKFQGRVTITADDFAGTVYMELSSLRSEDTAMYYCAKHMGYQVRETMDVWGKGTTVTVSS
VL: QSVLTQPPSVSAAPGQKVTISCSGSSSNIGNDYVSWYQQLPGTAPKLLIYDNNKRPSGIPDRFSGSKSGTSATLGITGLQTGDEANYYCATWDRRPTAYVVFGGGTKLTVLG
CR6261 binding signal [1]: 238000
Kd [2]: 130 nM
Kd [3]: 150 nM
Kd [4]: 150 nM
Kd [5]: 390 nM
Kd [6]: 130 nM
fold increase of ratio over parental SEQ ID NO: 6 [7]: 1
CR6261 binding signal [8]: 5.66e+06
CR6261 binding signal [9]: 300000
CR6261 binding signal [10]: 60400
CR6261 binding signal [11]: 334000
CR6261 binding signal [12]: 253000
CR6261 binding signal [13]: 185000
CR6261 binding signal [14]: 90700
CR6261 binding signal [15]: 318000
CR6261 binding signal [16]: 196000
CR6261 binding signal [17]: 69700
CR6261 binding signal [18]: 114000
CR6261 binding signal [19]: 414000
CR6261 binding signal [20]: 1.16e+06
CR6261 binding signal [21]: 56700
CR6261 binding signal [22]: 419000
CR6261 binding signal [23]: 209000
CR6261 binding signal [24]: 121000
CR6261 binding signal [25]: 364000
CR6261 binding signal [26]: 58400
CR6261 binding signal [27]: 255000
CR6261 binding signal [28]: 1.35e+06
CR6261 binding signal [29]: 184000
CR6261 binding signal [30]: 8.49e+06
CR6261 binding signal [31]: 2.42e+07
CR6261 binding signal [32]: 1.53e+07
CR6261 binding signal [33]: 6.63e+06
CR6261 binding signal [34]: 2.61e+07
CR6261 binding signal [35]: 2e+07
CR6261 binding signal [36]: 6.19e+06
CR6261 binding signal [37]: 8.44e+06
CR6261 binding signal [38]: 9.56e+06
CR6261 binding signal [39]: 5.73e+06
CR6261 binding signal [40]: 2.11e+07
CR6261 binding signal [41]: 1.19e+07
CR6261 binding signal [42]: 1.3e+07
CR6261 binding signal [43]: 6.41e+06
ratio (binding signal/HTRF signal) [44]: 17.4
